Blank lines part the entries; values can stand above or below the binder they belong to. Bridge positions count the residues as written; N and C are the ends. Square brackets hold non-standard residues; d marks the D form. Ends that are not written are not given here. Hyp = O=C(O)[C@@H]1C[C@@H](O)CN1; Nle = CCCC[C@H](N)C(=O)O
What was measured:
[1] = biological target: T1, porcine pancreatic elastase (porcine, UniProt P00772 27-266); assay: elastase inhibition, Ki=IC50/(1+S/Km)
T1 construct: substrate AAApNA
T1 sequence (P00772 27-266 limits assumed): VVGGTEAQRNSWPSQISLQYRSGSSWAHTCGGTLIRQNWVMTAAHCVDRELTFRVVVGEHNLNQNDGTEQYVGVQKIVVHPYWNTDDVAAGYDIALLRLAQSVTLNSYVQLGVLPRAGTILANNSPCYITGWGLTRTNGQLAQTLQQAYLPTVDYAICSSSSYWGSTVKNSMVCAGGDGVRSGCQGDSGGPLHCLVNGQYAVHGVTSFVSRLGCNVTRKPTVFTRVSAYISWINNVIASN

[2] = biological target: T1, porcine pancreatic elastase; assay: elastase inhibition, AAApNA substrate, OD405
PCSK9 protein = biological target: T2, PCSK9 protein (UniProt Q8NBP7 31-692, limits assumed); assay: PCSK9-LDLR in vitro binding assay kit, OD450/540; peptide 50 µM, PCSK9 75 ng/mL; inhibition of PCSK9 binding to LDLR
T2 construct: Kit reagent; also called proprotein convertase subtilisin/kexin type 9

Ki [1]: 70 nM
IC50 [2]: 250 nM
Binder: ICTASIPPICQ (disulfide 2-10 (inferred), disulfide bond between the two Cys) [EC23]

Ki [1]: 260 nM
IC50 [2]: 920 nM
Binder: YCTASIPPICQ (disulfide 2-10 (inferred), disulfide bond between the two Cys) [EC29]

Inhibitory rate (%) (PCSK9 protein): 89.9%
B4: PCSK9_3 (peptide)
peptide: CGRATKSIPPICFGTVFTSWEEALDWV
modifications: disulfide 1-12 (inferred)
notes: Hybrid with the anti-trypsin scaffold BT9; A disulfide bond joins the two Cys of the scaffold

Inhibitory rate (%) (PCSK9 protein): -8.7%
Binder: GTNEALDNNCGRATKSIPPICFGTVFTS (disulfide 10-21 (inferred)) [PCSK9_14]

Inhibitory rate (%) (PCSK9 protein): 41.4%
B5: PCSK9_4 (peptide)
peptide: WEEALDWVCGRATKSIPPICFTVFTS
modifications: disulfide 9-20 (inferred)
notes: A disulfide bond joins the two Cys of the scaffold

Inhibitory rate (%) (PCSK9 protein): 44.7%
Binder: WEEALDWVCGRATKSIPPICFGYVANDLKI (disulfide 9-20 (inferred)) [PCSK9_12]

Inhibitory rate (%) (PCSK9 protein): 3.6%
Binder: GTNEALDNNCGRATKSIPPICFVANDLK (disulfide 10-21 (inferred)) [PCSK9_11]

Inhibitory rate (%) (PCSK9 protein): 93.9%
B7: PCSK9_9 (peptide)
peptide: TVFTSGRCTKSIPPICFWEEYLDWV
modifications: disulfide 8-16 (inferred)
notes: Hybrid with the anti-trypsin scaffold BT45; A disulfide bond joins the two Cys of the scaffold

Inhibitory rate (%) (PCSK9 protein): 87%
B9: PCSK9_6 (peptide)
peptide: WEEYLDYVCGRATKSIPPICFGTVFTS
modifications: disulfide 9-20 (inferred)
notes: as for B4

Ki [1]: 280 nM
IC50 [2]: 970 nM
B10: EC50 (peptide)
peptide: SNGNAVEDGGLCTASIPPQCY
modifications: disulfide 12-20 (inferred)
notes: disulfide bond between the two Cys; peptide name, not a potency value

Inhibitory rate (%) (PCSK9 protein): 89.9%
B11: PCSK9_2 (peptide)
peptide: TVFTSWEEALDWVCGRATKSIPPICF
modifications: disulfide 14-25 (inferred)
notes: Hybrid of the Pep2-8 analogue with the anti-trypsin scaffold BT9; A disulfide bond joins the two Cys of the scaffold

Ki [1]: 13400 nM
IC50 [2]: 47000 nM
Binder: CAIATASIPPICQ (disulfide 1-12 (inferred), disulfide bond between the two Cys) [EC45]

Ki [1]: 110 nM
IC50 [2]: 400 nM
Binder: ICTASI[Hyp]PICQ (disulfide 2-10 (inferred), disulfide bond between the two Cys) [EC47]

The next lines start with the binder.

Binder: QGADTPPVGGLCTASIPPQCY (disulfide 12-20 (inferred), disulfide bond between the two Cys) [EC49]
Ki [1]: 280 nM
IC50 [2]: 990 nM

Binder: ICTASYPPQCR (disulfide 2-10 (inferred), disulfide bond between the two Cys) [EC27]
Ki [1]: 2440 nM
IC50 [2]: 8530 nM

Binder: ICTASIP[Hyp]ICQ (disulfide 2-10 (inferred), disulfide bond between the two Cys) [EC48]
Ki [1]: 160 nM
IC50 [2]: 550 nM

B1: PCSK9_3EC (peptide)
peptide: ICTASIPPICQGTVFTSWEEALDWV
modifications: disulfide 2-10 (inferred)
notes: Contains an anti-elastase scaffold, with a disulfide bond between its two Cys
Inhibitory rate (%) (PCSK9 protein): 99.6%

Binder: VCTASIPPICQ (disulfide 2-10 (inferred), disulfide bond between the two Cys) [EC22]
Ki [1]: 110 nM
IC50 [2]: 400 nM

Binder: FCTASIPPICQ (disulfide 2-10 (inferred), disulfide bond between the two Cys) [EC24]
Ki [1]: 640 nM
IC50 [2]: 2230 nM

Binder: LCTASNPPICQ (disulfide 2-10 (inferred), disulfide bond between the two Cys) [EC25]
Ki [1]: 300 nM
IC50 [2]: 1050 nM

Binder: CGI[Nle]TASIPPICQ (disulfide 1-12 (inferred), disulfide bond between the two Cys) [EC32]
Ki [1]: 6110 nM
IC50 [2]: 21400 nM

B2: PCSK9_7 (peptide)
peptide: TVFTSGCGRATKSIPPICFWEEYLDWV
modifications: disulfide 7-18 (inferred)
notes: as for B4
Inhibitory rate (%) (PCSK9 protein): 80.7%

B3: PCSK9_3CH (peptide)
peptide: FCTYSIPPQCYGGTVFTSWEEALDWV
modifications: disulfide 2-10 (inferred)
notes: Contains an anti-chymotrypsin scaffold, with a disulfide bond between its two Cys
Inhibitory rate (%) (PCSK9 protein): 99.2%

B6: PCSK9_2CH (peptide)
peptide: TVFTSWEEALDWVGFCTYSIPPQCYG
modifications: disulfide 16-24 (inferred)
notes: as for B3
Inhibitory rate (%) (PCSK9 protein): 100%

B8: PCSK9_5 (peptide)
peptide: WEEALDWVCGRATKSIPPICFGTVFTS
modifications: disulfide 9-20 (inferred)
notes: as for B4
Inhibitory rate (%) (PCSK9 protein): 77.9%

Binder: GTNEALDNNCGRATKSIPPICFYVANDLKI (disulfide 10-21 (inferred)) [PCSK9_10]
Inhibitory rate (%) (PCSK9 protein): -18.5%

Binder: MCTASMPPQCH (disulfide 2-10 (inferred), disulfide bond between the two Cys) [EC26]
Ki [1]: 6840 nM
IC50 [2]: 23900 nM

Binder: CGLATLSIPPICQ (disulfide 1-12 (inferred), disulfide bond between the two Cys) [EC7]
Ki [1]: 9620 nM
IC50 [2]: 33700 nM

Binder: CGILTASIPPICQ (disulfide 1-12 (inferred), disulfide bond between the two Cys) [EC33]
Ki [1]: 7580 nM
IC50 [2]: 26500 nM

B12: PCSK9_8 (peptide)
peptide: TVFTSGCGRATKSIPPICFSWEEYLDWV
modifications: disulfide 7-18 (inferred)
notes: as for B4
Inhibitory rate (%) (PCSK9 protein): 75.7%

— patent US20230416329A1 (INSTITUTE OF MATERIA MEDICA CHINESE ACADEMY OF MEDICAL …, published 2023)
